From PMC9256704 come the findings set out here.

This assay deals with PKM2 (M2 isoform of pyruvate kinase), endogenous (human (endogenous in A549 and in patients' lung cancer tissues)) (UniProt P14618). Description: native gel or EMSA; native PAGE of cytoplasm and nucleus of cells; TRIB2 overexpression or siRNA-TRIB2. (In general: A gel shift assay detects complexes by their altered migration in electrophoresis.)

PKM2 (M2 isoform of pyruvate kinase), endogenous, P14618 1-531 (natural protein; other documents disagree on this pair), sequence (P14618 whole entry, canonical isoform): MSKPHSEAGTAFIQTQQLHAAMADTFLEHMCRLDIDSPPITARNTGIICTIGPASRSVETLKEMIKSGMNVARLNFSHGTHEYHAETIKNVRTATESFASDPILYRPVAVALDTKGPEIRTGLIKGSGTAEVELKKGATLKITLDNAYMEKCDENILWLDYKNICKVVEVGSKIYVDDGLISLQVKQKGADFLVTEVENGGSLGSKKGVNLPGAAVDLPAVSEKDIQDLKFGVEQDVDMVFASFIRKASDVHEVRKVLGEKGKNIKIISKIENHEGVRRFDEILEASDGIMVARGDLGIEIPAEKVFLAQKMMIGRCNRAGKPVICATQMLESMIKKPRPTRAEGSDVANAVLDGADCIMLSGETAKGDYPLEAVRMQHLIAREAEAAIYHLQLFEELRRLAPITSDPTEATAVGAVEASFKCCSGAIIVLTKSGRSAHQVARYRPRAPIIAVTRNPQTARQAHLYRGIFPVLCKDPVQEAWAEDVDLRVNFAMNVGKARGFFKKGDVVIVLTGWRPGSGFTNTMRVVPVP

As to “PKM2 (M2 isoform of pyruvate kinase), endogenous, P14618 1-531 (natural protein; other documents disagree on this pair)”, the stoichiometry N (in general, a count of units in the complex or per binding partner) was 2.
